Results as given in paper PMC9757036.

B1: T6:P12 (R8-D3) (mixed)
DNA: AATACATAAGCGCTCCAGGCAAT
RNA: GCCUGGAGCGC
modifications: primer nt 1-8 RNA, nt 9-11 DNA, 3' ddC
B2: T7:P9 (D11) (dsDNA)
DNA 1: AATACATAATCGCTCCAGGCAAT
DNA 2: GCCTGGAGCGC
modifications: primer 3' ddC
B3: T8:P9 (D11) (dsDNA)
DNA 1: AATACATAAACGCTCCAGGCAAT
DNA 2: GCCTGGAGCGC
modifications: primer 3' ddC
B4: T7:P12 (R8-D3) (mixed)
DNA: AATACATAATCGCTCCAGGCAAT
RNA: GCCUGGAGCGC
modifications: primer nt 1-8 RNA, nt 9-11 DNA, 3' ddC
B5: T8:P12 (R8-D3) (mixed)
DNA: AATACATAAACGCTCCAGGCAAT
RNA: GCCUGGAGCGC
modifications: primer nt 1-8 RNA, nt 9-11 DNA, 3' ddC
B6: T6:P9 (D11) (dsDNA)
DNA 1: AATACATAAGCGCTCCAGGCAAT
DNA 2: GCCTGGAGCGC
modifications: primer 3' ddC

Target: DNA polymerase alpha catalytic domain (hPolα, hPolαCD) (human, UniProt P09884 335-1257)
Sequence (P09884 335-1257): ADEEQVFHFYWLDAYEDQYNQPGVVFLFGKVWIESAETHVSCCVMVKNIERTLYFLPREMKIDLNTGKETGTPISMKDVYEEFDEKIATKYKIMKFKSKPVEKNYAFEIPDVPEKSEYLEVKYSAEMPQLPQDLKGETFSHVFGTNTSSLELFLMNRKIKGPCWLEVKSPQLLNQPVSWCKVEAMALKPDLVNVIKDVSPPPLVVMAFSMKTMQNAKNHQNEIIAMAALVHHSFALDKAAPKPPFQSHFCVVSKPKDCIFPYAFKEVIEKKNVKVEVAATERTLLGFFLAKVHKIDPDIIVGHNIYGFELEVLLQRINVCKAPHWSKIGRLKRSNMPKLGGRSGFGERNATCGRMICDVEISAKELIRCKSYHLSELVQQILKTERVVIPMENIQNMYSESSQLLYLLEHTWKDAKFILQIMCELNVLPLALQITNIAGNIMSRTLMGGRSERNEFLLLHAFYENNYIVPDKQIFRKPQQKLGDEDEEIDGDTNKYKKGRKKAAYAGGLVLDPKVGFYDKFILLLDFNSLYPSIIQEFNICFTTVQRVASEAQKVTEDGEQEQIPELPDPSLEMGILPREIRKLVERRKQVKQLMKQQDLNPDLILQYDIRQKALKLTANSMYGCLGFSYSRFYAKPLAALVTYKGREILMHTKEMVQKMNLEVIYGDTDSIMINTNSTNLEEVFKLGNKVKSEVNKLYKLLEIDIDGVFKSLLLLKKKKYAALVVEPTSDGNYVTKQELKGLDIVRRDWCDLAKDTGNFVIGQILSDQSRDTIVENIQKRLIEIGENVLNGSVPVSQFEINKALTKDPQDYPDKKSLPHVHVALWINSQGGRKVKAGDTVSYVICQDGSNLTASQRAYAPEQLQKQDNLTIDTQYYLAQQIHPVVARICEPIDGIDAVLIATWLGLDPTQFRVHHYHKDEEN
Assay: BLI

Row | Binder | Kd
1 | B1 | 11.3 ± 0.69 nM
2 | B2 | 1130 ± 94 nM
3 | B3 | 1880 ± 33 nM
4 | B4 | 198 ± 9.2 nM
5 | B5 | 730 ± 51 nM
6 | B6 | 146 ± 17 nM
